Results from the supplement of paper PMC9732359.
± gives the uncertainty stated by the source.

Assay: protein stability index of a GFP-peptide fusion (yeast GPS) (PSI 1-4); higher = more stable; sorted into four equal gates, so the index is relative within each strain
Details: doa10∆
Method in brief: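 Tiled 17-residue peptides from yeast proteins were fused downstream of GFP on a plasmid that also expresses Cherry, and the pooled library was carried in yeast. Mid-log cultures grown in leucine-free medium were sorted into four equal gates by GFP/Cherry fluorescence ratio. Plasmids from each gate were PCR-amplified and Illumina-sequenced, and reads were assigned to strains by barcodes. Each peptide's protein stability index is the sum, over gates, of the gate's read frequency multiplied by its gate number.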
SAEDEENIIQRLQAANS [CDC53] gave a protein stability index of 3.15 ± 0.081.
SAETLSELIRTTLDAEK [FAS1] gave a protein stability index of 2.78 ± 0.054.
SAGRLYACISSRPGQSG [RPS8A] showed a protein stability index of 2.81 ± 0.095.
In the case of SAILLSETDKRQFLHEL [RPO31], the protein stability index is reported as 2.6 ± 0.069.
SALCILKEQELVLYDAE [BRR2] gave a protein stability index of 2.47 ± 0.16.
Sequence SANPKKTTITRVEPETF [SWI3] has a protein stability index of 2.86 ± 0.065.
Sequence SAQSIASAKSVRSGVSK [YAR002W/NUP60] has a protein stability index of 2.88 ± 0.072.
SASNTAKSTPNTNPSPL [GAL11] showed a protein stability index of 2.67 ± 0.044.
Sequence SASRAKNMPVIYNNIVS [RGR1] has a protein stability index of 2.42 ± 0.064.
For SATLPNYEDVGRFLRVP [BRR2], the protein stability index was 2.8 ± 0.087.
Work on SAVLLETTLGEMAEKID [PRP8] yielded a protein stability index of 1.12 ± 0.13.
In the case of SAVVSSNASRRKLINYT [RPN4], the protein stability index is reported as 2.77 ± 0.11.
In the case of SCEVEEIGLLGGRYVYP [SNU114], the protein stability index is reported as 3.27 ± 0.092.
With SCGYPAAKTRSYNWGAK [RPL37A] the protein stability index was 2.21 ± 0.29.
In the case of SCLTFFQALDSEETQFK [ITC1], the protein stability index is reported as 2.73 ± 0.1.
Work on SCQGNVIYRNSLYKVSF [YMR129W/POM152] yielded a protein stability index of 2.54 ± 0.064.
For SCRNPEHTDVIDELIDT [YIL149C/MLP2], the protein stability index was 2.68 ± 0.054.
SCTKCPQIVVPDAQNEL [DIS3] showed a protein stability index of 2.17 ± 0.05.
Sequence SDAAKEPPGSNTSFSFT [YOR098C/NUP1] has a protein stability index of 1.58 ± 0.046.
With SDAKEQHQSLSRSSSKN [ESC2] the protein stability index was 2.85 ± 0.14.
In the case of SDAVMAEHSQNKIDQSL [YJL041W/NSP1], the protein stability index is reported as 3.08 ± 0.064.
In the case of SDDAAQFMKRFPMPYEN [ECM29], the protein stability index is reported as 2.96 ± 0.068.
SDEAIIPVNKRRGAHGS [SIR3] showed a protein stability index of 3.03 ± 0.15.
Sequence SDKAQLNVVMKNLERLR [SMC4] has a protein stability index of 3.28 ± 0.099.
In the case of SDLRVLSGSISERIVDC [FAS1], the protein stability index is reported as 2.95 ± 0.14.
SDMQHIERLLKDLVTEN [PRE4] showed a protein stability index of 1.63 ± 0.14.
Sequence SDSEIPPLLVYKWTQGI [PRP8] has a protein stability index of 2.3 ± 0.056.
SEEERKSSPISNEAAKP [YOR098C/NUP1] gave a protein stability index of 2.94 ± 0.099.
Sequence SEFDSRVKAMEVDEKPT [RPT5] has a protein stability index of 2.77 ± 0.11.
SEIIDTNTSKQFQKARN [SRB8] gave a protein stability index of 2.71 ± 0.12.
SEKGLLSATQFTQPALT [FAS1] showed a protein stability index of 2.44 ± 0.061.
For SEKRLDHFIHLRNLHMK [SNF12], the protein stability index was 2.75 ± 0.051.
SELLGGTFKSTLDREYI [QCR2] gave a protein stability index of 3.15 ± 0.093.
SERIVDCIIRLPVKWET [FAS1] showed a protein stability index of 2.3 ± 0.089.
Work on SETADETLENNIVSVLT [RPN11] yielded a protein stability index of 2.73 ± 0.11.
SETQTKDENNTANDQYS [YCG1] gave a protein stability index of 2.89 ± 0.069.
For SEYMVFGKLAFPTRLGQ [YJL039C/NUP192], the protein stability index was 3.01 ± 0.073.
SFEKLYEGMKLGNHAIT [YMR129W/POM152] showed a protein stability index of 2.85 ± 0.17.
Sequence SFFSGLSPPEFLFHAIS [RPO31] has a protein stability index of 2.07 ± 0.044.
Sequence SFFVSVRKAITVLFFIG [FAS1] has a protein stability index of 1.48 ± 0.087.
SFIINFISNLPNVSDKY [NUT1] gave a protein stability index of 2.28 ± 0.08.
For SFNCENFFQAPQDYVLE [YML031W/NDC1], the protein stability index was 3.07 ± 0.079.
SFNVKENQPFHGIKDIP [AAR2] showed a protein stability index of 2.73 ± 0.16.
SFQLSKIRRAARDLLTR [RPS9A] gave a protein stability index of 2.06 ± 0.044.
In the case of SFSFSIPSKNTPDASKP [YLR335W/NUP2], the protein stability index is reported as 2.42 ± 0.04.
With SFTFASSKTSQPKPLFS [YOR098C/NUP1] the protein stability index was 2.37 ± 0.042.
With SFTPSTVPNINFSGLNG [YOR098C/NUP1] the protein stability index was 2.59 ± 0.066.
With SFVLNKNTIDFERFPSP [RPN4] the protein stability index was 2.4 ± 0.059.
Work on SGAYSYPDFRHYGLAVD [DIS3] yielded a protein stability index of 1.82 ± 0.047.
With SGEEKGKKVSGFKDEVL [RPS1B] the protein stability index was 3.4 ± 0.11.
SGGLFGNQQQQLQQQPQ [YGL172W/NUP49] gave a protein stability index of 2.88 ± 0.13.
Sequence SGIVASPAVKKLLQLAG [RPS2] has a protein stability index of 1.56 ± 0.12.
For SGKITDFIKFDAGKLVY [RPS4A], the protein stability index was 3.17 ± 0.066.
Sequence SGLMVILYTSKIVFILD [RRI2] has a protein stability index of 1.76 ± 0.09.
For SHAIRLGNGVACDPSEI [RGR1], the protein stability index was 1.52 ± 0.088.
SHFSPDIKAAVDDSMEL [ITC1] gave a protein stability index of 2.27 ± 0.096.
In the case of SIGINDVTPADDLKQKK [RPO31], the protein stability index is reported as 2.99 ± 0.25.
In the case of SIKNNVAMCFVINKLDR [SNU114], the protein stability index is reported as 1.9 ± 0.14.
SIKSQKEEISDQKPIEH [SWI3] showed a protein stability index of 2.88 ± 0.059.
For SILESSMFLRIDYSNSQ [RGR1], the protein stability index was 2.42 ± 0.083.
In the case of SILKRHSFAVLLHERKL [NUT1], the protein stability index is reported as 2.19 ± 0.12.
In the case of SISGFKEALLGQLLKDH [ARP9], the protein stability index is reported as 2.01 ± 0.19.
Sequence SISSVVSEDLLDERGHE [RPN4] has a protein stability index of 3.11 ± 0.1.
Work on SITLQGDVYDPEGTLSG [SMC2] yielded a protein stability index of 2.76 ± 0.16.
SIVNICDIQEEQVDITA [PUP1] showed a protein stability index of 2.83 ± 0.15.
In the case of SKDEPVSKAVESKSLLN [SIR4], the protein stability index is reported as 2.39 ± 0.097.
Sequence SKESWRYDWYQPSKVSS [RTT102] has a protein stability index of 2.09 ± 0.097.
SKFTKIPPTFDKGAVGP [MED4] gave a protein stability index of 3.17 ± 0.072.
For SKGYPIQFLTIGAGVPS [FAS1], the protein stability index was 1.4 ± 0.032.
SKIRKIHIQETQEFSKN [SIR3] showed a protein stability index of 3.45 ± 0.11.
SKKAEKTGTKPAAVFTE [RPL4A] showed a protein stability index of 2.52 ± 0.068.
SKKDFKIIDNPKSFLKK [YMR129W/POM152] gave a protein stability index of 3.05 ± 0.082.
Sequence SKKKKNIKKKDTKDALS [RPC53] has a protein stability index of 3.3 ± 0.17.
Work on SKKRFAAIWTLCKTKMV [RPO21] yielded a protein stability index of 1.75 ± 0.048.
Work on SKKRKLNSLTNLLSKRN [SNM1] yielded a protein stability index of 2.87 ± 0.071.
In the case of SKKVLECLPAEGHDWKA [DIS3], the protein stability index is reported as 1.65 ± 0.13.
SKKYQLADWRIRPLSKP [RRP6] gave a protein stability index of 1.68 ± 0.048.
With SKLAEEKIRAAGGVVEL [RPL28] the protein stability index was 2.85 ± 0.04.
SKNPLSLTEATKTNVDN [YLR335W/NUP2] showed a protein stability index of 3.01 ± 0.065.
For SKRVYKILSPTMYMEVY [CDC53], the protein stability index was 2.29 ± 0.075.
In the case of SKSAFSFGSKPTGKEEG [YJL041W/NSP1], the protein stability index is reported as 3.26 ± 0.058.
Sequence SKSDSDSEERDPKLEKC [ITC1] has a protein stability index of 3 ± 0.14.
SKSGRIFALVFSSNERY [RPN13] gave a protein stability index of 2.45 ± 0.1.
SKTDNIEDPNLSSNITF [YMR153W/NUP53] gave a protein stability index of 2.84 ± 0.084.
SKVASSLVIIILVKRYS [ECM29] showed a protein stability index of 1.85 ± 0.054.
Work on SKVQFDAKTSYPNEVLK [REC8] yielded a protein stability index of 2.77 ± 0.05.
Work on SKVREEVGDVCINELDN [RPO31] yielded a protein stability index of 3.15 ± 0.095.
With SKVTKKHGAKKVAKRTK [RPL27B] the protein stability index was 3.42 ± 0.27.
Sequence SKVYFNNQSKEKADYED [RPN12] has a protein stability index of 2.56 ± 0.076.
SKVYYNLGEYESAVKYA [RPN2] gave a protein stability index of 2.62 ± 0.16.
With SKYFIIDSFFLYVLPSF [YMR129W/POM152] the protein stability index was 1.55 ± 0.045.
For SLADNEIALKGLESLLN [YCS4], the protein stability index was 2.81 ± 0.056.
In the case of SLAPEADLDSLIIRNDS [RPT3], the protein stability index is reported as 2.92 ± 0.11.
In the case of SLDSCTAAFTAMICEAK [YJR042W/NUP85], the protein stability index is reported as 2.79 ± 0.13.
SLEHELKRSTELLETVS [YIL149C/MLP2] gave a protein stability index of 2 ± 0.057.
SLFGSIGDDGYDLLIST [SRB5] showed a protein stability index of 2.17 ± 0.087.
SLGDGTNYYLTTARNDL [CSL4] showed a protein stability index of 2.66 ± 0.068.
In the case of SLGHQTSLITAVYGPRS [MTR3], the protein stability index is reported as 2.54 ± 0.052.
SLHTKNVFGTLQRHSGI [YLR018C/POM34] gave a protein stability index of 2.56 ± 0.066.
SLIEDFVDGIANSKKST [SRB7] gave a protein stability index of 3.29 ± 0.14.
In the case of SLKGVDPKFRRNHKHAL [RPL29], the protein stability index is reported as 1.45 ± 0.068.
